From patent publication US20240366728A1 (CARMOT THERAPEUTICS, published 2024)

What was measured:
Assay in all cases: cell-based or functional assay
human GLP-1R [1] = target: T1, human GLP-1R (human, UniProt P43220 24-463)
mouse GLP-1R = target: T2, mouse GLP-1R (mouse, UniProt O35659 22-463)
T2 sequence (looked up): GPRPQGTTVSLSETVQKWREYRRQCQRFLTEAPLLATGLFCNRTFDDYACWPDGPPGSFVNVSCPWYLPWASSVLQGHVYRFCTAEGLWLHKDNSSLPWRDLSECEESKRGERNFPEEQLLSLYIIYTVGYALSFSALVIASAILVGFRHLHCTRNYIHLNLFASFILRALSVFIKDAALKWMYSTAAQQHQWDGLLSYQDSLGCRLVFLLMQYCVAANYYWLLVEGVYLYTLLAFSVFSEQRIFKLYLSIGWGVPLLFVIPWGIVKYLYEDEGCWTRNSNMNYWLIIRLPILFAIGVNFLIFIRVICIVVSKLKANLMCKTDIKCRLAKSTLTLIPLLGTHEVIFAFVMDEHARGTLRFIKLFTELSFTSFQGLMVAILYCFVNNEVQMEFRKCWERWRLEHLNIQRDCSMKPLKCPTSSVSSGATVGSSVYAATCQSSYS

human GIPR [2] = target: T3, human GIPR (human, UniProt P48546 22-466)
T3 sequence (looked up): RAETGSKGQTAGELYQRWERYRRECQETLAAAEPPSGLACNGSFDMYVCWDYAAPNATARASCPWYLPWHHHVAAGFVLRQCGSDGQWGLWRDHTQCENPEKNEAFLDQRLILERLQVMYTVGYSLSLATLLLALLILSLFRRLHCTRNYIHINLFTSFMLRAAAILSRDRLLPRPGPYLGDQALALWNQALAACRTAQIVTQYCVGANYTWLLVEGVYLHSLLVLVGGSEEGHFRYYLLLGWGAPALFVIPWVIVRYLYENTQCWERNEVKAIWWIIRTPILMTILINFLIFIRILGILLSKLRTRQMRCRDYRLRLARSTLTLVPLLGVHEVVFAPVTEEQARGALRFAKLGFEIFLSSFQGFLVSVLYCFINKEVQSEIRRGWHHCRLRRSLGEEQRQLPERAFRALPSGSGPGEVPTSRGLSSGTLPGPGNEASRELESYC

mouse GIPR = target: T4, mouse GIPR (mouse, UniProt Q0P543 19-460)
T4 sequence (looked up): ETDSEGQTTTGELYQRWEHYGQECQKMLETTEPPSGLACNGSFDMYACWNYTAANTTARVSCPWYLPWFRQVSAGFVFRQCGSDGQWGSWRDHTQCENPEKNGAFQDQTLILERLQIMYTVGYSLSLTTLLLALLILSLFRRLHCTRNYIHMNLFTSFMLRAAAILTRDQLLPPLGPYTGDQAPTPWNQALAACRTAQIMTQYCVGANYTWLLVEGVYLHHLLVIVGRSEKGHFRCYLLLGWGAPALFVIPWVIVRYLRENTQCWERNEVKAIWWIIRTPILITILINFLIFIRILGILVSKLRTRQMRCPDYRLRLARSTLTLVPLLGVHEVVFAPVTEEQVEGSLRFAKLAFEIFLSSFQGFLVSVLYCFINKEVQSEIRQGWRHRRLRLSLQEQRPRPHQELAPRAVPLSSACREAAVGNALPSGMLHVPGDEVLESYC

human GLP-1R [3] = target: T1, human GLP-1R; remark: listed apart in the source
human GIPR [4] = target: T3, human GIPR; remark: listed apart in the source

B1: CT-868 (peptide)
peptide: EGTFTSDYSIYLDKQAAXEFVNWLLAGGPSSGAPPPSK
modifications: N-terminal 2-(2-Piperidon-1-yl)-ethylcarbamoylmethylthio-acetyl on Glu; Aib (18th residue of the printed chain); C-terminal Lys(γ-Glu-palmitoyl)-NH2; hydrochloride salt
For B1, the “hGLP-1R Internalization EC50” value (human GLP-1R [1]) was 3.1 nM, the “hGLP-1R cAMP (-alb) EC50” value (human GLP-1R [1]) was 0.156 nM and the “hGLP-1R β-arrestin-2 EC50” value (human GLP-1R [1]) was 11 nM. The “mGLP-1R cAMP (-alb) EC50” value (mouse GLP-1R) was 0.164 nM, the “mGLP-1R β-arrestin-2 EC50” value (mouse GLP-1R) was 21.1 nM and the “hGIPR Internalization EC50” value (human GIPR [2]) was 14 nM. The “hGIPR cAMP (-alb) EC50” value (human GIPR [2]) was 1.9 nM, the “hGIPR β-arrestin-2 EC50” value (human GIPR [2]) was 13 nM and the “hGIPR/hGLP-1R cAMP ratio” value (human GIPR [2]) was 12. For the same binder, the “mGIPR cAMP (-alb) EC50” value (mouse GIPR) was 1.03 nM, the “mGIPR β-arrestin-2 EC50” value (mouse GIPR) was 6.21 nM and the “mGIPR/mGLP-1R cAMP ratio” value (mouse GIPR) was 6. The “fold less potent than GLP-1 (cAMP accumulation)” value (human GLP-1R [3]) was 6 fold, the “fold less potent than GIP (cAMP accumulation)” value (human GIPR [4]) was 16 fold and the “ratio GLP-1R over GIPR (cAMP potency)” value (human GIPR [4]) was about 19.4.
